The target in the assay is T1, dipeptidyl-peptidase IV (DPP-IV) (Homo sapiens, UniProt P27487).
T1 construct: purchased Creative BioMart (Shirley, NY, USA); host or cells: HEK293 human cells
The experiment in a line: DPP-IV inhibition assay on SPOT-synthesized peptides (cleaved from cellulose membrane). In kind it is biochemical. The following applies: peptides cleaved from cellulose membrane, concentration not known (semi-quantitative); averages of four determinations from two experiments. From the text: Recombinant human dipeptidyl-peptidase IV (DPP-IV, EC 3.4.14.5, expressed in HEK293 human cells, >95% purity, activity >5500 pmoles Gly–Pro–7-amido-4-methylcoumarin/min/µg) was purchased from Creative BioMart (Shirley, NY, USA) while polyclonal goat DPP-IV antibody and polyclonal donkey anti-goat secondary antibody conjugated to horseradish peroxidase were obtained from R&D Systems (Minneapolis, MN, USA). Pierce™ ECL western blotting substrate and protein-free (TBS) blocking buffer were from Thermo Scientific (Rockford, IL, USA). Gly–Pro–p-nitroanilide (H-Gly–Pro–p-NA∙HCl) was purchased from Bachem Americas (Torrance, CA, USA). Synthesized peptides (≥95% purity) were prepared and purified by GL Biochem (Shanghai) Ltd. (Shanghai, China).
Peptide arrays of deca-peptides spanning the entire α-lactalbumin sequence with a frame shift of one amino acid between successive sequences were prepared by Kinexus Bioinformatics Corporation (Vancouver, BC, Canada). The peptides were synthesized from the C-terminal amino acid using the SPOT technology consisting of the stepwise coupling of the Fmoc-protected amino acids and cleavage of the side chain protection groups. The α-lactalbumin-derived peptides were synthesized on trioxatridecanediamine (TOTD) and β-alanine-modified Whatman 540 cellulose membranes for the binding and inhibition assays, respectively. For the inhibition assay, the peptides were synthesized in large dots (5–7 mm in diameter) and the quality of the synthesis was verified by HPLC analysis of quality controls spots included on the membranes.
In order to determine the effect of the SPOT-synthesized peptides on the activity of the DPP-IV enzyme, the peptides were first cleaved from the cellulose support by incubating the membranes with gaseous ammonia overnight. Peptide spots (5 mm in diameter) were then punched out using a single-hole punch and transferred into microcentrifuge tubes containing 150 µL of acetonitrile (50% in 100 mM Tris–HCl buffer pH 8.0). The peptide solution (50 µL) was pipetted into a 96-well microplate with 35 µL of the chromogenic substrate Gly–Pro–p-NA (0.29 mM in 100 mM Tris–HCl buffer pH 8.0). The mixture was pre-incubated for 10 min at 37 °C, whereupon 15 µL of DPP-IV (25 mU/mL) was added and the enzymatic reaction was carried out for 30 min at 37 °C. The reaction was then terminated by addition of 100 µL of 1 M sodium acetate buffer pH 4.0 and the absorbance of the released p-nitroaniline was measured at 405 nm using a Tecan Infinite® 200 Pro microplate reader (ESBE Scientific, Markham, ON, Canada). Positive and negative controls (DPP-IV activity with no inhibitor and no DPP-IV activity, respectively) were prepared using punched peptide-free cellulose spots from the same membrane used for peptide synthesis, and adding Tris-HCl buffer in place of the sample and in place of the sample and enzyme solution, respectively.
One unit of DPP-IV was defined as the concentration of enzyme that releases 1 µmol per min of p-nitroaniline from Gly–Pro–p-NA (100 µM) at 37 °C and pH 8.0.

40 substances from article PMC4264199, “Peptide Array on Cellulose Support—A Screening Tool to Identify Peptides with Dipeptidyl-Peptidase IV Inhibitory Activity within the Sequence of α-Lactalbumin” (International Journal of Molecular Sciences, 2014) can be followed below.

Ends that are not written are not given here.

T1 sequence (P27487 whole entry): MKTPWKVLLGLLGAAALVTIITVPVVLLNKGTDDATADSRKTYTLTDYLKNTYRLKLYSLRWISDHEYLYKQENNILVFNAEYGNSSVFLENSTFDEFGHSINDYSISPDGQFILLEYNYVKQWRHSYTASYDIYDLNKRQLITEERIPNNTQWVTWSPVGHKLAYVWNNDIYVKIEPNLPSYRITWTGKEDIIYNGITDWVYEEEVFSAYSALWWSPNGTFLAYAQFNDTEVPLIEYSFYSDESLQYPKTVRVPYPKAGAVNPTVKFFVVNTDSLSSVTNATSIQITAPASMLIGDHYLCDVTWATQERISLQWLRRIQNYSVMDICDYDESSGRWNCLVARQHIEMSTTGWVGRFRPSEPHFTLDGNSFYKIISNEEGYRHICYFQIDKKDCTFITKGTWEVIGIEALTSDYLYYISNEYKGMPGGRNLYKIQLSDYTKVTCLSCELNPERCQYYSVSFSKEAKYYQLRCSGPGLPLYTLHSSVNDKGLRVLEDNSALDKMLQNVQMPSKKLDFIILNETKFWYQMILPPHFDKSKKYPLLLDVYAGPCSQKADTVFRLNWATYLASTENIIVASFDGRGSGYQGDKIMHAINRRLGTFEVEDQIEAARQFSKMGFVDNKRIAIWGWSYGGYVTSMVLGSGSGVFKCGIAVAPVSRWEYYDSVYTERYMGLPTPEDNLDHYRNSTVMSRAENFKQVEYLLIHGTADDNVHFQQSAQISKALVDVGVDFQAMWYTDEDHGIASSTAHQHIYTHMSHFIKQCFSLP

As to “A2: α-lactalbumin-derived deca-peptide, residues 2–11 (Table S1) (QFTKCELSQL; UniProt P00709 21-30, looked up, fragment)”, the “Percent inhibition of DPP-IV activity, SPOT-synthesized deca-peptides” value (shortened to “Percent inhibition of DPP-IV activity”) amounted to 16%.

For “A3: α-lactalbumin-derived deca-peptide, residues 3–12 (Table S1) (FTKCELSQLL; UniProt P00709 22-31, looked up, fragment)”, the “Percent inhibition of DPP-IV activity” value stood at 20%.

On to “A4: α-lactalbumin-derived deca-peptide, residues 4–13 (Table S1) (TKCELSQLLK; UniProt P00709 23-32, looked up, fragment)”, for which the “Percent inhibition of DPP-IV activity” value worked out at 20%.

On to “A5: α-lactalbumin-derived deca-peptide, residues 5–14 (Table S1) (KCEVFRELKD; UniProt P00711 24-33, looked up, fragment)”, for which the “Percent inhibition of DPP-IV activity” value is on record as 17%.

For the substance “A6: α-lactalbumin-derived deca-peptide, residues 6–15 (Table S1) (CEVFRELKDL; UniProt P00711 25-34, looked up, fragment)”, the “Percent inhibition of DPP-IV activity” value is given as 16%.

For the substance “A7: α-lactalbumin-derived deca-peptide, residues 7–16 (Table S1) (EVFRELKDLK; UniProt P00711 26-35, looked up, fragment)”, the “Percent inhibition of DPP-IV activity” value was found to be 18%.

Consider “A9: α-lactalbumin-derived deca-peptide, residues 9–18 (Table S1) (FRELKDLKGY; UniProt P00711 28-37, looked up, fragment)”, for which the “Percent inhibition of DPP-IV activity” value is 17%.

For AHKALCSEKL [J7], the “Percent inhibition of DPP-IV activity” value was 21%.

As for AIVQNNDSTE [D7], the “Percent inhibition of DPP-IV activity” value is 11%.

Regarding ALCSEKLDQW [J10], the “Percent inhibition of DPP-IV activity” value is reported as 21%.

Take “B1: α-lactalbumin-derived deca-peptide, residues 12–21 (Table S1) (LKDLKGYGGV; UniProt P00711 31-40, looked up, fragment)”: the “Percent inhibition of DPP-IV activity” value is 11%.

In the case of “B2: α-lactalbumin-derived deca-peptide, residues 13–22 (Table S1) (KDLKGYGGVS; UniProt P00711 32-41, looked up, fragment)”, the “Percent inhibition of DPP-IV activity” value is on record as 11%.

As for “B3: α-lactalbumin-derived deca-peptide, residues 14–23 (Table S1) (DIDGYGGIAL; UniProt P00709 33-42, looked up, fragment)”, the “Percent inhibition of DPP-IV activity” value was determined as 13%.

With “B4: α-lactalbumin-derived deca-peptide, residues 15–24 (Table S1) (LKGYGGVSLP; UniProt P00711 34-43, looked up, fragment)”, the “Percent inhibition of DPP-IV activity” value worked out at 13%.

Regarding “B5: α-lactalbumin-derived deca-peptide, residues 16–25 (Table S1) (KGYGGVSLPE; UniProt P00711 35-44, looked up, fragment)”, the “Percent inhibition of DPP-IV activity” value was 11%.

As for “B7: α-lactalbumin-derived deca-peptide, residues 18–27 (Table S1) (YGGVSLPEWV; UniProt P00711 37-46, looked up, fragment)”, the “Percent inhibition of DPP-IV activity” value came out at 15%.

As to “B8: α-lactalbumin-derived deca-peptide, residues 19–28 (Table S1) (GGVSLPEWVC; UniProt P00711 38-47, looked up, fragment)”, the “Percent inhibition of DPP-IV activity” value is recorded as 15%.

On to “B9: α-lactalbumin-derived deca-peptide, residues 20–29 (Table S1) (GVSLPEWVCT; UniProt P00711 39-48, looked up, fragment)”, for which the “Percent inhibition of DPP-IV activity” value came out at 15%.

For “C2: α-lactalbumin-derived deca-peptide, residues 24–33 (Table S1) (PEWVCTTFHT; UniProt P00711 43-52, looked up, fragment)”, the “Percent inhibition of DPP-IV activity” value is listed as 14%.

As for “C3: α-lactalbumin-derived deca-peptide, residues 25–34 (Table S1) (ELICTMFHTS; UniProt P00709 44-53, looked up, fragment)”, the “Percent inhibition of DPP-IV activity” value is 18%.

Turning to “C4: α-lactalbumin-derived deca-peptide, residues 26–35 (Table S1) (WVCTTFHTSG; UniProt P00711 45-54, looked up, fragment)”, the “Percent inhibition of DPP-IV activity” value is 26%.

For the substance “C5: α-lactalbumin-derived deca-peptide, residues 27–36 (Table S1) (ICTMFHTSGY; UniProt P00709 46-55, looked up, fragment)”, the “Percent inhibition of DPP-IV activity” value was determined as 16%.

As to “C6: α-lactalbumin-derived deca-peptide, residues 28–37 (Table S1) (CTTFHTSGYD; UniProt P00711 47-56, looked up, fragment)”, the “Percent inhibition of DPP-IV activity” value stood at 10%.

In the case of “C7: α-lactalbumin-derived deca-peptide, residues 29–38 (Table S1) (TTFHTSGYDT; UniProt P00711 48-57, looked up, fragment)”, the “Percent inhibition of DPP-IV activity” value worked out at 5%.

As for “C8: α-lactalbumin-derived deca-peptide, residues 30–39 (Table S1) (TFHTSGYDTQ; UniProt P00711 49-58, looked up, fragment)”, the “Percent inhibition of DPP-IV activity” value is given as 13%.

Take CDKFLDDDLT [G11]: the “Percent inhibition of DPP-IV activity” value came out at 22%.

CSEKLDQWLC [K1]: the “Percent inhibition of DPP-IV activity” value amounted to 22%.

With “D1: α-lactalbumin-derived deca-peptide, residues 34–43 (Table S1) (SGYDTQAIVE; UniProt P00709 53-62, looked up, fragment)”, the “Percent inhibition of DPP-IV activity” value worked out at 11%.

Turning to “D2: α-lactalbumin-derived deca-peptide, residues 35–44 (Table S1) (GYDTQAIVQN; UniProt P00711 54-63, looked up, fragment)”, the “Percent inhibition of DPP-IV activity” value amounted to 9%.

On to “D3: α-lactalbumin-derived deca-peptide, residues 36–45 (Table S1) (YDTQAIVENN; UniProt P00709 55-64, looked up, fragment)”, for which the “Percent inhibition of DPP-IV activity” value amounted to 11%.

In the case of “D5: α-lactalbumin-derived deca-peptide, residues 38–47 (Table S1) (TQAIVQNNDS; UniProt P00711 57-66, looked up, fragment)”, the “Percent inhibition of DPP-IV activity” value amounted to 14%.

Take “D6: α-lactalbumin-derived deca-peptide, residues 39–48 (Table S1) (QAIVQNNDST; UniProt P00711 58-67, looked up, fragment)”: the “Percent inhibition of DPP-IV activity” value was found to be 14%.

As to DDQNPHSSNI [F8], the “Percent inhibition of DPP-IV activity” value is 15%.

DQNPHSSNIC [F9]: the “Percent inhibition of DPP-IV activity” value amounted to 15%.

For DSTEYGLFQI [E2], the “Percent inhibition of DPP-IV activity” value amounted to 14%.

As for EKLDQWLCEK [K3], the “Percent inhibition of DPP-IV activity” value worked out at 24%.

As to ELKDLKGYGG [A11], the “Percent inhibition of DPP-IV activity” value is given as 8%.

Take EYGLFQINNK [E5]: the “Percent inhibition of DPP-IV activity” value was 10%.

For the substance FQINNKIWCK [E9], the “Percent inhibition of DPP-IV activity” value came out at 20%.

For “G1: α-lactalbumin-derived deca-peptide, residues 67–76 (Table S1) (PHSSNICNIS; UniProt P00711 86-95, looked up, fragment)”, the “Percent inhibition of DPP-IV activity” value was 11%.
